In patent publication US20220332804A1 (CSL INNOVATION, published 2022):
Positions count from the first letter of the chain named.

What was measured:
Assay in all cases: SPR; KD relative to WT C2;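 note: biacore SPR at 37 °C, anti-C2 mAbs captured on an anti-human IgG chip, alanine or serine C2 surface mutants tested, KD from 1:1 fit compared with wild-type C2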
[1] = target: T1, human C2 A472S (human, UniProt P06681 21-752)
T1 sequence: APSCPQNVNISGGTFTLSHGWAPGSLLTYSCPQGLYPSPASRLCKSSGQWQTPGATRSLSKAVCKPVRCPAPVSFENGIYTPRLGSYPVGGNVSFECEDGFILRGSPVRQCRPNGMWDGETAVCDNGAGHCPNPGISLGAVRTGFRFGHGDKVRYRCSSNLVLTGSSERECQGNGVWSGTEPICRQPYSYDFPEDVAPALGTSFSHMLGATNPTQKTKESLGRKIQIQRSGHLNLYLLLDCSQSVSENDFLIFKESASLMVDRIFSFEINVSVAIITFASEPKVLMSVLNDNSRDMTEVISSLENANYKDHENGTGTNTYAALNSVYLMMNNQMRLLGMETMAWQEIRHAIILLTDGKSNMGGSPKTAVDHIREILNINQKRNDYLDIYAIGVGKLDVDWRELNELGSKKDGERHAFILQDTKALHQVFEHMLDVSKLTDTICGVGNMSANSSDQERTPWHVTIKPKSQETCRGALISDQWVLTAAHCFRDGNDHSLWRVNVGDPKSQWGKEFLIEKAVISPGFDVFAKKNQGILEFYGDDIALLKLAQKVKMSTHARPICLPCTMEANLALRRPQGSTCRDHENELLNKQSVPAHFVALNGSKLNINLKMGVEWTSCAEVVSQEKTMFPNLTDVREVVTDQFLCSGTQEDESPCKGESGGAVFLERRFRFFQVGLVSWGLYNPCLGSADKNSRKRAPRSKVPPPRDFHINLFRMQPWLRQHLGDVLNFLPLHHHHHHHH

[2] = target: T2, human C2 E324A (human, UniProt P06681 21-752)
T2 sequence: T1 sequence with E304A, S452A

[3] = target: T3, human C2 Y328A (human, UniProt P06681 21-752)
T3 sequence: T1 sequence with Y308A, S452A

[4] = target: T4, human C2 K415A (human, UniProt P06681 21-752)
T4 sequence: T1 sequence with K395A, S452A

Fold diff [1]: 8 fold | Fold diff [2]: 1 fold | Fold diff [3]: 6 fold | Fold diff [4]: 1 fold
B1: RF16-214 (antibody, V domains shown)
VH: EVQLLESGGGLVQPGGSLRLSCAASGFTFSWYQMMWVRQAPGKGLEWVSRIYPSGGGTAYADSVKGRFTISRDNSKNTLYLQMNSLRAEDTAVYYCARDAGYGDNWGQGTLVTVSS
VL: QSALTQPPSVSVSPGQTASITCSGDKLGEKYASWYQQKAGQSPVMVIYQDRKRPSGIPERFSGSNSGNTATLTISGTQAMDEADYYCQAWDTRAVVFGGGTKLTVLG
